The values that follow come from doi:10.1101/2023.02.18.529070 (bioRxiv, 2023).

The test concerns the target recombinant human HER3 extracellular domain (human, UniProt P21860 20-643). The test is described as follows: BLI.

Where only a bound is given, the exact number is not on record here.

Sequence of recombinant human HER3 extracellular domain (P21860 20-643): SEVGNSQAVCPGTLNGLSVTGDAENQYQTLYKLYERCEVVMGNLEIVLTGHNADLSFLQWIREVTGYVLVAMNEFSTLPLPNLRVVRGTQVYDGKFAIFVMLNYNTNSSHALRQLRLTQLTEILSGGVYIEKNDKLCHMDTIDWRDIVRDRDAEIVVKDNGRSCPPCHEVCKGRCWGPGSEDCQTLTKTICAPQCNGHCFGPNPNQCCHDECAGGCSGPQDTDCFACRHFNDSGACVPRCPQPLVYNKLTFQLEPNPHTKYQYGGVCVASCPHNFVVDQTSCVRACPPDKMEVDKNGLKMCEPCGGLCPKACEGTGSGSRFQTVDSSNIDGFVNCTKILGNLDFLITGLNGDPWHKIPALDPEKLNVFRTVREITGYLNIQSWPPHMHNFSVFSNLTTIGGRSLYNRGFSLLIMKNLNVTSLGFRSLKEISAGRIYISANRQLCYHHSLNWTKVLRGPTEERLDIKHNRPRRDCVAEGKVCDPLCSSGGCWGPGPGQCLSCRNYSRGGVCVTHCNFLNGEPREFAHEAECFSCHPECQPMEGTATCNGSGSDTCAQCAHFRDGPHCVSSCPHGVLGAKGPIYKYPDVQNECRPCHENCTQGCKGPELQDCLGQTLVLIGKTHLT

B1: neuregulin-beta1 (Ser 2-Lys 246 N-terminal fragment) (ligand, human, UniProt Q02297-6 2-246, looked up)
chain: SERKEGRGKGKGKKKERGSGKKPESAAGSQSPALPPRLKEMKSQESAAGSKLVLRCETSSEYSSLRFKWFKNGNELNRKNKPQNIKIQKKPGKSELRINKASLADSGEYMCKVISKLGNDSASANITIVESNEIITGMPASTEGAYVSSESPIRISVSTEGANTSSSTSTSTTGTSHLVKCAEKEKTFCVNGGECFMVKDLSNPSRYLCKCPNEFTGDRCQNYVMASFYKHLGIEFMEAEELYQK
For the molecule B1, the binding result was “binds”.

B2: recombinant human LRG1 (leucine-rich alpha-2-glycoprotein 1) (ligand, UniProt P02750 36-347, looked up)
chain: VTLSPKDCQVFRSDHGSSISCQPPAEIPGYLPADTVHLAVEFFNLTHLPANLLQGASKLQELHLSSNGLESLSPEFLRPVPQLRVLDLTRNALTGLPPGLFQASATLDTLVLKENQLEVLEVSWLHGLKALGHLDLSGNRLRKLPPGLLANFTLLRTLDLGENQLETLPPDLLRGPLQLERLHLEGNKLQVLGKDLLLPQPDLRYLFLNGNKLARVAAGAFQGLRQLDMLDLSNNSLASVPEGLWASLGQPNWDMRDGFDISGNPWICDQNLSDLYRWLQAQKDKMFSQNDTRCAGPEAVKGQTLLAVAKSQ
Turning to B2, the Kd amounted to 100 nM and the “fold binding affinity against neuregulin-HER3” value is greater than 3 fold.

As usually defined, the Kd is the equilibrium constant for the complex coming apart.
